In one experiment the target is ctnb1_human CTNNB1 (UniProt P35222).
The target in another experiment is ctnb1_mouse Ctnnb1 (UniProt Q02248).
ctnb1_mouse Ctnnb1, sequence (Q02248 whole entry): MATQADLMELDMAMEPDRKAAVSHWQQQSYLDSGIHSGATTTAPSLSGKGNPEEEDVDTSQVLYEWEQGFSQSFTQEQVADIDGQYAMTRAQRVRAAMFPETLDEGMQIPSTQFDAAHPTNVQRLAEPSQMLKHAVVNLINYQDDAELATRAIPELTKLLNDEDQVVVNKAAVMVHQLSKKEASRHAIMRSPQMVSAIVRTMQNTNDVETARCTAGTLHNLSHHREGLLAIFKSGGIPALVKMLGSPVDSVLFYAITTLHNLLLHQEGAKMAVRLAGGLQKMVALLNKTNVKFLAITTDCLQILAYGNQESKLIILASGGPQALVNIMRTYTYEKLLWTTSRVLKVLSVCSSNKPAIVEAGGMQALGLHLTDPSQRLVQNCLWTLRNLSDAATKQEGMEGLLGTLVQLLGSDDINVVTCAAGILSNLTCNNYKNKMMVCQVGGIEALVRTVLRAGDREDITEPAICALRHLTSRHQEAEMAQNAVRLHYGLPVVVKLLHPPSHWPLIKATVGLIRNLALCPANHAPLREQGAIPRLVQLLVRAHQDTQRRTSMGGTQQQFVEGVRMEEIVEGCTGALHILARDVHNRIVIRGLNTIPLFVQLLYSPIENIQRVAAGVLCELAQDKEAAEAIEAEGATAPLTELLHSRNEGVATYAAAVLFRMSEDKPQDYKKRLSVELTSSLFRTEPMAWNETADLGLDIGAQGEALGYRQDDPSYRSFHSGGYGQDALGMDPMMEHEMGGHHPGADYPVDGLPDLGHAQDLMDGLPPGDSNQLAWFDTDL

ctnb1_human CTNNB1, sequence (P35222 whole entry): as the sequence (Q02248 whole entry) above, with A706P counted along it

Regarding “CREB-binding protein (Homo sapiens), Q92793 S92A”, the “effect of a mutation on the interaction” value in the experiment with ctnb1_human CTNNB1 is “decreasing interaction”. Turning to “Histone lysine acetyltransferase CREBBP (Mus musculus), P45481 S92A”, the “effect of a mutation on the interaction” value with ctnb1_mouse Ctnnb1 is on record as “decreasing interaction”.

These data come from IntAct's records for PubMed 21751375.
